Data: patent US20240245793A1 (UNIVERSITY OF COPENHAGEN, published 2024)
Read-outs that look alike come from different tables or passages of the source. No end group written: not given here. OPEG4 = PEG4 linker (Xa = -O-, formula XXVI) joining two peptide copies; NPEG4 = not defined here

B1: compound 67, NPEG4-(KETLV)2 fused to L-Arg7 (Ac-RRRRRRR-) (peptide)
peptide: NPEG4-KETLV
chain: Ac-RRRRRRR-NPEG4
modifications: reading uncertain; also: two KETLV copies joined at their N-termini by the NPEG4 linker, CPP C-terminus linked to the NPEG4 nitrogen, printed as NPEG4-(KETLV)2 fused to L-Arg7 (Ac-RRRRRRR-)
notes: Branched compound CPP-NPEG4-(P1)(P2), formula (XXVIII)
B2: compound 31, NPEG4-(ISTDV)2 fused to L-Arg9 (Ac-RRRRRRRRR-) (peptide)
peptide: ISTDV
chain: Ac-RRRRRRRRR
modifications: not fully specified (N-terminus, C-terminus); also: dimer: two copies bridged at N-termini by NPEG4, Arg9 C-terminus on NPEG4 nitrogen
notes: Branched compound CPP-NPEG4-(P1)(P2), formula (XXVIII); also called formula (XXI)
B3: compound 50, NPEG4-(IETDV)2 fused to L-DPV3 (Ac-RKKRRRESRKKRRRES-) (peptide)
peptide: NPEG4-IETDV
chain: Ac-RKKRRRESRKKRRRES-NPEG4
modifications: reading uncertain; also: two IETDV copies joined at their N-termini by the NPEG4 linker, CPP C-terminus linked to the NPEG4 nitrogen, printed as NPEG4-(IETDV)2 fused to L-DPV3 (Ac-RKKRRRESRKKRRRES-)
notes: as for B1
B4: compound 27, NPEG4-(KETVV)2 fused to L-Arg9 (Ac-RRRRRRRRR-) (peptide)
peptide: KETVV
chain: Ac-RRRRRRRRR
modifications: not fully specified (N-terminus, C-terminus); also: dimer: two copies bridged at N-termini by NPEG4, Arg9 C-terminus on NPEG4 nitrogen
notes: Branched compound CPP-NPEG4-(P1)(P2), formula (XXVIII); also called formula (XIX)
B5: compound 29, NPEG4-(KETRV)2 fused to L-Arg9 (Ac-RRRRRRRRR-) (peptide)
peptide: KETRV
chain: Ac-RRRRRRRRR
modifications: not fully specified (N-terminus, C-terminus); also: dimer: two copies bridged at N-termini by NPEG4, Arg9 C-terminus on NPEG4 nitrogen
notes: Branched compound CPP-NPEG4-(P1)(P2), formula (XXVIII); also called formula (XX)
B6: compound 33, NPEG4-(VETVV)2 fused to L-Arg9 (Ac-RRRRRRRRR-) (peptide)
peptide: VETVV
chain: Ac-RRRRRRRRR
modifications: not fully specified (N-terminus, C-terminus); also: dimer: two copies bridged at N-termini by NPEG4, Arg9 C-terminus on NPEG4 nitrogen
notes: also called formula (XXII)
B7: compound 25, NPEG4-(KETTV)2 fused to L-Arg9 (Ac-RRRRRRRRR-) (peptide)
peptide: KETTV
chain: Ac-RRRRRRRRR
modifications: not fully specified (N-terminus, C-terminus); also: dimer: two copies bridged at N-termini by NPEG4, Arg9 C-terminus on NPEG4 nitrogen
notes: Branched compound CPP-NPEG4-(P1)(P2), formula (XXVIII); also called formula (XVIII)
B8: compound 4, OPEG4-(KETVV)2 (peptide)
peptide: OPEG4-KETVV
modifications: also: dimer: two copies bridged at N-termini by OPEG4
notes: Dimer of formula (XXXI), P1 = P2, no CPP
B9: compound 5, OPEG4-(KETRV)2 (peptide)
peptide: OPEG4-KETRV
modifications: also: dimer: two KETRV copies joined at their N-termini by the OPEG4 linker
notes: Dimer of formula (XXXII), P1 = P2, no CPP
B10: compound 7, OPEG4-(VETVV)2 (peptide)
peptide: OPEG4-VETVV
modifications: also: dimer: two VETVV copies joined at their N-termini by the OPEG4 linker
notes: Dimer of formula (XXXIV), P1 = P2, no CPP
B11: compound 2, OPEG4-(KETLV)2 (peptide)
peptide: OPEG4-KETLV
modifications: also: dimer: two copies bridged at N-termini by OPEG4
notes: Dimer of formula (XXIX), P1 = P2, no CPP
B12: compound 6, OPEG4-(ISTDV)2 (peptide)
peptide: OPEG4-ISTDV
modifications: also: dimer: two ISTDV copies joined at their N-termini by the OPEG4 linker
notes: Dimer of formula (XXXIII), P1 = P2, no CPP
B13: compound 71, NPEG4-(KETLV)2 fused to L-Arg5 (Ac-RRRRR-) (peptide)
peptide: NPEG4-KETLV
chain: Ac-RRRRR-NPEG4
modifications: reading uncertain; also: two KETLV copies joined at their N-termini by the NPEG4 linker, CPP C-terminus linked to the NPEG4 nitrogen, printed as NPEG4-(KETLV)2 fused to L-Arg5 (Ac-RRRRR-)
notes: as for B1
B14: compound 73, NPEG4-(KETLV)2 fused to L-Arg4 (Ac-RRRR-) (peptide)
peptide: NPEG4-KETLV
chain: Ac-RRRR-NPEG4
modifications: reading uncertain; also: two KETLV copies joined at their N-termini by the NPEG4 linker, CPP C-terminus linked to the NPEG4 nitrogen, printed as NPEG4-(KETLV)2 fused to L-Arg4 (Ac-RRRR-)
B15: compound 52, NPEG4-(IETDV)2 fused to L-pVEC (Ac-LLIILRRRIRKQAHAHSK-) (peptide)
peptide: NPEG4-IETDV
chain: Ac-LLIILRRRIRKQAHAHSK-NPEG4
modifications: reading uncertain; also: two IETDV copies joined at their N-termini by the NPEG4 linker, CPP C-terminus linked to the NPEG4 nitrogen, printed as NPEG4-(IETDV)2 fused to L-pVEC (Ac-LLIILRRRIRKQAHAHSK-)
notes: as for B1

Key:
Assay in all cases: FP competition against fluorescent dimeric probe, Ki from IC50
[1] = biological target: T1, PDZ1-2 of PSD-95 (postsynaptic density protein-95) (UniProt P78352 61-249, limits assumed)
T1 construct: domain: PDZ1-2; also called PSD-95 PDZ1-2; PSD-95 PDZ12
T1 sequence (P78352 61-249 limits assumed): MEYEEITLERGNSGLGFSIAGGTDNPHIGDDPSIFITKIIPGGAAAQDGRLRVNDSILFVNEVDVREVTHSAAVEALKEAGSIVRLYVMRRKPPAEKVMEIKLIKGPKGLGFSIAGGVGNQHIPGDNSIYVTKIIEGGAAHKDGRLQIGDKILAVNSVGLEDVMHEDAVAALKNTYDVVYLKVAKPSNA

[2] = biological target: T1, PDZ1-2 of PSD-95 (postsynaptic density …); remark: listed apart in the source
[3] = biological target: T1, PDZ1-2 of PSD-95 (postsynaptic density …); remark: listed apart in the source
[4] = biological target: T1, PDZ1-2 of PSD-95 (postsynaptic density …); remark: listed apart in the source

Binder	Ki [2]	Ki [4]	further results
B1	–	–	Ki [1]: 5.8 nM
B2	62.3 nM	–	–
B3	–	–	Ki [3]: 16.6 nM
B4	6.3 nM	–	–
B5	10.1 nM	–	–
B6	19.9 nM	–	–
B7	5.6 nM	–	–
B8	–	15.8 nM	–
B9	–	53.2 nM	–
B10	–	17 nM	–
B11	–	11.1 nM	–
B12	–	53.1 nM	–
B13	–	–	Ki [1]: 10.9 nM
B14	–	–	Ki [1]: 11.1 nM
B15	–	–	Ki [3]: 13.3 nM
